B1: library; numbered along this chain (parent)
chain: MRKPRAAVGSGHRKQAASQEGRQKHAKNNSQAKPSACDGLARQPEEVVLQASVSSYHLFRDVAEVTAFRGSLLSWYDQEKRDLPWRRRAEDEMDLDRRAYAVWVSEVMLQQTQVATVINYYTGWMQKWPTLQDLASASLEEVNQLWAGLGYYSRGRRLQEGARKVVEELGGHMPRTAETLQQLLPGVGRYTAGAIASIAFGQATGVVDGNVARVLCRVRAIGADPSSTLVSQQLWGLAQQLVDPARPGDFNQAAMELGATVCTPQRPLCSQCPVESLCRARQRVEQEQLLASGSLSGSPDVEECAPNTGQCHLCLPPSEPWDQTLGVVNFPRKASRKPPREESSATCVLEQPGALGAQILLVQRPNSGLLAGLWEFPSVTWEPSEQLQRKALLQELQRWAGPLPATHLRHLGEVVHTFSHIKLTYQVYGLALEGQTPVTTVPPGARWLTQEEFHTAAVSTAMKKVFRVYQGQQPGTCMGSKRSQVSSPCSRKKPRMGQQVLDNFFRSHISTDAHSLNSAAQ

Variants of: B1
Test: 8OG:A repair function score (normalized; synonymous = 0, nonsense = -1) (normalized log-likelihood score); higher = more repair activity (WT-like)
Details: with 8OG:A DNA repair reporter (GFP) in HEK-293 MUTYH KO cells
Procedure, shortened: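 With 10 pg/ml doxycycline, MUTYH knockout HEK-293 cells carrying lentiviral MUTYH cDNA NNN codon-scan libraries were co-transfected with mCherry and an 8OG:A GFP repair reporter. Viable mCherry+ cells were sorted into GFP+ (repair) and GFP− bins at 72 h, three replicates per tile, and tile amplicons were sequenced. Per-tile Rosace fitness scores were then normalized into a repair function score anchored on synonymous and nonsense distributions. Medians were fixed at 0 for synonymous and -1 for nonsense, excluding variants under 300 counts per million at the start.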

| Variant | 8OG:A repair function score |
| --- | --- |
| MRKPRAAVGSGHRKQAASQEGRQKHAKNNSQAKPSACDGLARQPEEVVLQASVSSYHLFRDVAEVTAFRGSLLSWYDQEKRDLPWRRRAEDEMDLDRRAYAVWVSEVMLQQTQVATVINYYTGWMQKWPTLQDLASASLEEVNQLWAGLGYYSRGRRLQEGARKVVEELGGHMPRTAETLQQLLPGVGRYTAGAIASIAFGQATGVVDGNVARVLCRVRAIGADPSSTLVSQQLWGLAQQLVDPARPGDFNQAAMELGATVCTPQRPLCSQCPVESLCRARQRVEQEQLLASGSLSGSPDVEECAPNTGQCHLCLPPSEPWDQTLGVVNFPRKASGKPPREESSATCVLEQPGALGAQILLVQRPNSGLLAGLWEFPSVTWEPSEQLQRKALLQELQRWAGPLPATHLRHLGEVVHTFSHIKLTYQVYGLALEGQTPVTTVPPGARWLTQEEFHTAAVSTAMKKVFRVYQGQQPGTCMGSKRSQVSSPCSRKKPRMGQQVLDNFFRSHISTDAHSLNSAAQ [R336G] | -0.112 |
| MRKPRAAVGSGHRKQAASQEGRQKHAKNNSQAKPSACDGLARQPEEVVLQASVSSYHLFRDVAEVTAFRGSLLSWYDQEKRDLPWRRRAEDEMDLDRRAYAVWVSEVMLQQTQVATVINYYTGWMQKWPTLQDLASASLEEVNQLWAGLGYYSRGRRLQEGARKVVEELGGHMPRTAETLQQLLPGVGRYTAGAIASIAFGQATGVVDGNVARVLCRVRAIGADPSSTLVSQQLWGLAQQLVDPARPGDFNQAAMELGATVCTPQRPLCSQCPVESLCRARQRVEQEQLLASGSLSGSPDVEECAPNTGQCHLCLPPSEPWDQTLGVVNFPRKASIKPPREESSATCVLEQPGALGAQILLVQRPNSGLLAGLWEFPSVTWEPSEQLQRKALLQELQRWAGPLPATHLRHLGEVVHTFSHIKLTYQVYGLALEGQTPVTTVPPGARWLTQEEFHTAAVSTAMKKVFRVYQGQQPGTCMGSKRSQVSSPCSRKKPRMGQQVLDNFFRSHISTDAHSLNSAAQ [R336I] | -0.113 |
| MRKPRAAVGSGHRKQAASQEGRQKHAKNNSQAKPSACDGLARQPEEVVLQASVSSYHLFRDVAEVTAFRGSLLSWYDQEKRDLPWRRRAEDEMDLDRRAYAVWVSEVMLQQTQVATVINYYTGWMQKWPTLQDLASASLEEVNQLWAGLGYYSRGRRLQEGARKVVEELGGHMPRTAETLQQLLPGVGRYTAGAIASIAFGQATGVVDGNVARVLCRVRAIGADPSSTLVSQQLWGLAQQLVDPARPGDFNQAAMELGATVCTPQRPLCSQCPVESLCRARQRVEQEQLLASGSLSGSPDVEECAPNTGQCHLCLPPSEPWDQTLGVVNFPRKASCKPPREESSATCVLEQPGALGAQILLVQRPNSGLLAGLWEFPSVTWEPSEQLQRKALLQELQRWAGPLPATHLRHLGEVVHTFSHIKLTYQVYGLALEGQTPVTTVPPGARWLTQEEFHTAAVSTAMKKVFRVYQGQQPGTCMGSKRSQVSSPCSRKKPRMGQQVLDNFFRSHISTDAHSLNSAAQ [R336C] | -0.0115 |
| MRKPRAAVGSGHRKQAASQEGRQKHAKNNSQAKPSACDGLARQPEEVVLQASVSSYHLFRDVAEVTAFRGSLLSWYDQEKRDLPWRRRAEDEMDLDRRAYAVWVSEVMLQQTQVATVINYYTGWMQKWPTLQDLASASLEEVNQLWAGLGYYSRGRRLQEGARKVVEELGGHMPRTAETLQQLLPGVGRYTAGAIASIAFGQATGVVDGNVARVLCRVRAIGADPSSTLVSQQLWGLAQQLVDPARPGDFNQAAMELGATVCTPQRPLCSQCPVESLCRARQRVEQEQLLASGSLSGSPDVEECAPNTGQCHLCLPPSEPWDQTLGVVNFPRKASFKPPREESSATCVLEQPGALGAQILLVQRPNSGLLAGLWEFPSVTWEPSEQLQRKALLQELQRWAGPLPATHLRHLGEVVHTFSHIKLTYQVYGLALEGQTPVTTVPPGARWLTQEEFHTAAVSTAMKKVFRVYQGQQPGTCMGSKRSQVSSPCSRKKPRMGQQVLDNFFRSHISTDAHSLNSAAQ [R336F] | -0.164 |
| MRKPRAAVGSGHRKQAASQEGRQKHAKNNSQAKPSACDGLARQPEEVVLQASVSSYHLFRDVAEVTAFRGSLLSWYDQEKRDLPWRRRAEDEMDLDRRAYAVWVSEVMLQQTQVATVINYYTGWMQKWPTLQDLASASLEEVNQLWAGLGYYSRGRRLQEGARKVVEELGGHMPRTAETLQQLLPGVGRYTAGAIASIAFGQATGVVDGNVARVLCRVRAIGADPSSTLVSQQLWGLAQQLVDPARPGDFNQAAMELGATVCTPQRPLCSQCPVESLCRARQRVEQEQLLASGSLSGSPDVEECAPNTGQCHLCLPPSEPWDQTLGVVNFPRKASEKPPREESSATCVLEQPGALGAQILLVQRPNSGLLAGLWEFPSVTWEPSEQLQRKALLQELQRWAGPLPATHLRHLGEVVHTFSHIKLTYQVYGLALEGQTPVTTVPPGARWLTQEEFHTAAVSTAMKKVFRVYQGQQPGTCMGSKRSQVSSPCSRKKPRMGQQVLDNFFRSHISTDAHSLNSAAQ [R336E] | -0.151 |
| MRKPRAAVGSGHRKQAASQEGRQKHAKNNSQAKPSACDGLARQPEEVVLQASVSSYHLFRDVAEVTAFRGSLLSWYDQEKRDLPWRRRAEDEMDLDRRAYAVWVSEVMLQQTQVATVINYYTGWMQKWPTLQDLASASLEEVNQLWAGLGYYSRGRRLQEGARKVVEELGGHMPRTAETLQQLLPGVGRYTAGAIASIAFGQATGVVDGNVARVLCRVRAIGADPSSTLVSQQLWGLAQQLVDPARPGDFNQAAMELGATVCTPQRPLCSQCPVESLCRARQRVEQEQLLASGSLSGSPDVEECAPNTGQCHLCLPPSEPWDQTLGVVNFPRKASLKPPREESSATCVLEQPGALGAQILLVQRPNSGLLAGLWEFPSVTWEPSEQLQRKALLQELQRWAGPLPATHLRHLGEVVHTFSHIKLTYQVYGLALEGQTPVTTVPPGARWLTQEEFHTAAVSTAMKKVFRVYQGQQPGTCMGSKRSQVSSPCSRKKPRMGQQVLDNFFRSHISTDAHSLNSAAQ [R336L] | -0.22 |
| MRKPRAAVGSGHRKQAASQEGRQKHAKNNSQAKPSACDGLARQPEEVVLQASVSSYHLFRDVAEVTAFRGSLLSWYDQEKRDLPWRRRAEDEMDLDRRAYAVWVSEVMLQQTQVATVINYYTGWMQKWPTLQDLASASLEEVNQLWAGLGYYSRGRRLQEGARKVVEELGGHMPRTAETLQQLLPGVGRYTAGAIASIAFGQATGVVDGNVARVLCRVRAIGADPSSTLVSQQLWGLAQQLVDPARPGDFNQAAMELGATVCTPQRPLCSQCPVESLCRARQRVEQEQLLASGSLSGSPDVEECAPNTGQCHLCLPPSEPWDQTLGVVNFPRKASNKPPREESSATCVLEQPGALGAQILLVQRPNSGLLAGLWEFPSVTWEPSEQLQRKALLQELQRWAGPLPATHLRHLGEVVHTFSHIKLTYQVYGLALEGQTPVTTVPPGARWLTQEEFHTAAVSTAMKKVFRVYQGQQPGTCMGSKRSQVSSPCSRKKPRMGQQVLDNFFRSHISTDAHSLNSAAQ [R336N] | -0.101 |
| MRKPRAAVGSGHRKQAASQEGRQKHAKNNSQAKPSACDGLARQPEEVVLQASVSSYHLFRDVAEVTAFRGSLLSWYDQEKRDLPWRRRAEDEMDLDRRAYAVWVSEVMLQQTQVATVINYYTGWMQKWPTLQDLASASLEEVNQLWAGLGYYSRGRRLQEGARKVVEELGGHMPRTAETLQQLLPGVGRYTAGAIASIAFGQATGVVDGNVARVLCRVRAIGADPSSTLVSQQLWGLAQQLVDPARPGDFNQAAMELGATVCTPQRPLCSQCPVESLCRARQRVEQEQLLASGSLSGSPDVEECAPNTGQCHLCLPPSEPWDQTLGVVNFPRKASHKPPREESSATCVLEQPGALGAQILLVQRPNSGLLAGLWEFPSVTWEPSEQLQRKALLQELQRWAGPLPATHLRHLGEVVHTFSHIKLTYQVYGLALEGQTPVTTVPPGARWLTQEEFHTAAVSTAMKKVFRVYQGQQPGTCMGSKRSQVSSPCSRKKPRMGQQVLDNFFRSHISTDAHSLNSAAQ [R336H] | -0.173 |
| MRKPRAAVGSGHRKQAASQEGRQKHAKNNSQAKPSACDGLARQPEEVVLQASVSSYHLFRDVAEVTAFRGSLLSWYDQEKRDLPWRRRAEDEMDLDRRAYAVWVSEVMLQQTQVATVINYYTGWMQKWPTLQDLASASLEEVNQLWAGLGYYSRGRRLQEGARKVVEELGGHMPRTAETLQQLLPGVGRYTAGAIASIAFGQATGVVDGNVARVLCRVRAIGADPSSTLVSQQLWGLAQQLVDPARPGDFNQAAMELGATVCTPQRPLCSQCPVESLCRARQRVEQEQLLASGSLSGSPDVEECAPNTGQCHLCLPPSEPWDQTLGVVNFPRKASDKPPREESSATCVLEQPGALGAQILLVQRPNSGLLAGLWEFPSVTWEPSEQLQRKALLQELQRWAGPLPATHLRHLGEVVHTFSHIKLTYQVYGLALEGQTPVTTVPPGARWLTQEEFHTAAVSTAMKKVFRVYQGQQPGTCMGSKRSQVSSPCSRKKPRMGQQVLDNFFRSHISTDAHSLNSAAQ [R336D] | -0.271 |
| MRKPRAAVGSGHRKQAASQEGRQKHAKNNSQAKPSACDGLARQPEEVVLQASVSSYHLFRDVAEVTAFRGSLLSWYDQEKRDLPWRRRAEDEMDLDRRAYAVWVSEVMLQQTQVATVINYYTGWMQKWPTLQDLASASLEEVNQLWAGLGYYSRGRRLQEGARKVVEELGGHMPRTAETLQQLLPGVGRYTAGAIASIAFGQATGVVDGNVARVLCRVRAIGADPSSTLVSQQLWGLAQQLVDPARPGDFNQAAMELGATVCTPQRPLCSQCPVESLCRARQRVEQEQLLASGSLSGSPDVEECAPNTGQCHLCLPPSEPWDQTLGVVNFPRKASKKPPREESSATCVLEQPGALGAQILLVQRPNSGLLAGLWEFPSVTWEPSEQLQRKALLQELQRWAGPLPATHLRHLGEVVHTFSHIKLTYQVYGLALEGQTPVTTVPPGARWLTQEEFHTAAVSTAMKKVFRVYQGQQPGTCMGSKRSQVSSPCSRKKPRMGQQVLDNFFRSHISTDAHSLNSAAQ [R336K] | -0.0529 |
| MRKPRAAVGSGHRKQAASQEGRQKHAKNNSQAKPSACDGLARQPEEVVLQASVSSYHLFRDVAEVTAFRGSLLSWYDQEKRDLPWRRRAEDEMDLDRRAYAVWVSEVMLQQTQVATVINYYTGWMQKWPTLQDLASASLEEVNQLWAGLGYYSRGRRLQEGARKVVEELGGHMPRTAETLQQLLPGVGRYTAGAIASIAFGQATGVVDGNVARVLCRVRAIGADPSSTLVSQQLWGLAQQLVDPARPGDFNQAAMELGATVCTPQRPLCSQCPVESLCRARQRVEQEQLLASGSLSGSPDVEECAPNTGQCHLCLPPSEPWDQTLGVVNFPRKASMKPPREESSATCVLEQPGALGAQILLVQRPNSGLLAGLWEFPSVTWEPSEQLQRKALLQELQRWAGPLPATHLRHLGEVVHTFSHIKLTYQVYGLALEGQTPVTTVPPGARWLTQEEFHTAAVSTAMKKVFRVYQGQQPGTCMGSKRSQVSSPCSRKKPRMGQQVLDNFFRSHISTDAHSLNSAAQ [R336M] | -0.117 |
| MRKPRAAVGSGHRKQAASQEGRQKHAKNNSQAKPSACDGLARQPEEVVLQASVSSYHLFRDVAEVTAFRGSLLSWYDQEKRDLPWRRRAEDEMDLDRRAYAVWVSEVMLQQTQVATVINYYTGWMQKWPTLQDLASASLEEVNQLWAGLGYYSRGRRLQEGARKVVEELGGHMPRTAETLQQLLPGVGRYTAGAIASIAFGQATGVVDGNVARVLCRVRAIGADPSSTLVSQQLWGLAQQLVDPARPGDFNQAAMELGATVCTPQRPLCSQCPVESLCRARQRVEQEQLLASGSLSGSPDVEECAPNTGQCHLCLPPSEPWDQTLGVVNFPRKASAKPPREESSATCVLEQPGALGAQILLVQRPNSGLLAGLWEFPSVTWEPSEQLQRKALLQELQRWAGPLPATHLRHLGEVVHTFSHIKLTYQVYGLALEGQTPVTTVPPGARWLTQEEFHTAAVSTAMKKVFRVYQGQQPGTCMGSKRSQVSSPCSRKKPRMGQQVLDNFFRSHISTDAHSLNSAAQ [R336A] | -0.0267 |

— the supplement of paper PMC11908140
